Target: ZZZ3 ZZ domain (aa 800–903), GST cleaved (human) (UniProt Q8IYH5)
Test: other fluorescence titration; tryptophan fluorescence; 1.0 µM ZZZ3 ZZ (aa 800–903) with increasing histone peptide; 25 °C; 20 mM Tris–HCl pH 7.2, 150 mM NaCl, 1 mM DTT; triplicates

Chain of ZZZ3 ZZ domain (aa 800–903), GST cleaved (human) (Q8IYH5 800-903): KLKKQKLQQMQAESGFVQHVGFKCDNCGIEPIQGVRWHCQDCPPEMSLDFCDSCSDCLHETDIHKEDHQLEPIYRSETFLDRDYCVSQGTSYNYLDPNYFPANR

| Kd | Substance |
| --- | --- |
| 8.2 µM | H3K4ac peptide of the tryptophan fluorescence and NMR titration experiments |
| 29 µM | unmodified H3 peptide of the tryptophan fluorescence and NMR titration experiments |

Source: article PMC6138639, “The ZZ-type zinc finger of ZZZ3 modulates the ATAC complex-mediated histone acetylation and gene activation” (Nature Communications, 2018)
